This note sets out measurements from patent US6465220B1, “Glycosylation using GalNac-T4 transferase” (GlycoZym ApS, priority 1998, dated 2002).

The target in this test is T1, GalNAc-T4 (Homo sapiens, UniProt Q8N4A0).
T1 construct: made in house; host or cells: High Five insect cells (baculovirus, pAcGP67 vector)
Kind of test: GalNAc-transferase assay with purified recombinant GalNAc-T4. It counts as biochemical. Here is the method:
In the examples, GalNAc-transferase assays were performed in 50 μl total reaction mixtures containing 25 mM cacodylate (pH 7.5), 10 mM MnCl2, 0.1-0.25% Triton X-100, 150-200 μM UDP-[^14C]-GalNAc (4,000 cpm/nmole) (Amersham) and 0.06-1 mM acceptor peptides. Peptides were either synthesized or obtained from Carlbiotech (Copenhagen), or Neosystems (Strasbourg), and quality was ascertained by amino acid analysis and mass spectrometry. Peptides Muc-1a, Muc-1b, and TAP24, were derived from the tandem repeat of human MUC1, Gendler et al., J. Biol. Chem. 265:15286 (1990), and Muc2, Muc5AC, and Muc7 from the tandem repeats of MUC2, MUC5AC, and MUC7, respectively. Gum et al., J. Biol. Chem. 264:6480 (1989); Porchet et al., Biochem. Soc. Trans. 23:800 (1995); Bobek et al., J. Biol. Chem. 268:20563 (1993). GalNAc4TAP24 was produced by in vitro glycosylation using GalNAc-T2 as described in Wandall et al., J. Biol. Chem. 272:23503 (1997). Products were quantified by scintillation counting after chromatography on Dowex-1, octadecyl silica cartridges (Bakerbond), or HPLC (PC3.2/3 or mRPC C2/C18 SC2.1/10 Pharmacia, Smart System). Products produced by in vitro glycosylation were in most cases also confirmed by mass spectrometry.
In this example, GalNAc-T4 was expressed in Sf9 insect cells. Expression constructs designed to contain amino acid residues 32-578 of the coding sequence of the putative GalNAc-T4 gene shown in SEQ ID NO:1 prepared by genomic PCR of two clones containing GalNAc-T4 (described in Bennett et al. (1998), supra) were cloned into a BamHI site of the expression vector pAcGP67 (Pharmingen), and the expression construct was sequenced. The constructs pAcGP67-GalNAc-T4506Vsol and pAcGP67-GalNAc-T4506 I sol, were designed to yield a putative soluble form of the GalNAc-T4 protein with an N-terminal end positioned immediately C-terminal to a potential transmembrane domain and including the entire sequence expected to contain the catalytic domain. […] Res. Comm. 211:347 (1995).
The activities presented in Table I were obtained with purified GalNAc-T4 and -T2, and are expressed as mU/mg (the concentration of enzyme protein estimated by SDS-PAGE using BSA as standard).

T1 sequence (Q8N4A0 32-578 limits assumed): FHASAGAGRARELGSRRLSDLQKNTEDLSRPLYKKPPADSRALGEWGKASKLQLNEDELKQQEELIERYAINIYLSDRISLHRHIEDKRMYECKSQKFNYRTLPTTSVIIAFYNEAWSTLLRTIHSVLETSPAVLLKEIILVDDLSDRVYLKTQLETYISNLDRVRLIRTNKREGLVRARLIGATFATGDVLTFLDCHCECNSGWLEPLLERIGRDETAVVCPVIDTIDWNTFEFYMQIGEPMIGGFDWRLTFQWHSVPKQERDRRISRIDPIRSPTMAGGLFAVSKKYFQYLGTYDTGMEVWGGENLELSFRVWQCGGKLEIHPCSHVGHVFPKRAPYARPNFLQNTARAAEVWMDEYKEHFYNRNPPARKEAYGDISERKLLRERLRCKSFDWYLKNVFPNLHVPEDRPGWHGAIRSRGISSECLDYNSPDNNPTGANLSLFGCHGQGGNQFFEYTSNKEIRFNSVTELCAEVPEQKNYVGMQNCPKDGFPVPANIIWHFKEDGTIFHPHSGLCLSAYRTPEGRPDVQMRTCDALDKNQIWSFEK

Broadly, the Km is the substrate concentration at which the rate is half of its maximum. “DSTTPAPTTK [EA2, mucin derived substrate]”: the “GalNAc-T4 activity with acceptor peptide” value runs as follows: (0.06 mM peptide in 50-μl assay) 15 ± 0.1 milliunits/mg; (0.25 mM peptide in 50-μl assay) 42 ± 4 milliunits/mg. Moreover, where the note is “acceptor substrate”, the “Vmax GalNAc-T4” value is 0.44 nmol/min/µg. Further, under “acceptor substrate, read-out: Km GalNAc-T4”, the Km worked out at 2190 µM.
